Source: the supplement of paper PMC10567573

B1: ZNF449 (parent)
chain: YRHQRLHTGERPYECTVCKKRFTR

Variants of: B1
Assay: protein stability index of a GFP-peptide fusion (GPS, HEK-293T) (PSI 1-6); higher = more stable
Settings: c terminus: a fixed tail appended
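Also: lentivirally expressed fusions sorted by FACS into six bins by GFP to DsRed ratio, PSI derived from sequencing read proportions per bin multiplied by bin number.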

Protein stability index of substitutions, site by site:
R21: L 2.02 | Q 1.98 | C 2.01
E14: Y 2.39 | C 2.57 | I 2.77 | N 2.7 | P 2.93 | L 2.38 | D 2.23 | A 2.5 | H 2.52 | G 2.42 | K 2.97 | M 2.58 | S 2.69 | R 2.6 | W 2.59 | V 2.84 | F 2.11 | Q 2.54 | T 2.44
R24: Y 2.1 | N 2.47 | Q 2.31 | A 2.35 | M 2.68 | W 1.87 | C 2.65 | I 2.14 | V 2.51 | D 2.6 | L 2.39 | P 2.75 | F 2.57 | T 2.26 | K 3.32 | H 2.11 | S 2.3 | G 2.44 | E 2.78
C15: E 3.35 | G 3.7 | W 3.07 | R 3.53 | Q 3.91 | N 3.44 | I 2.55 | D 3.51 | V 2.85 | S 3.02 | L 3.11 | M 2.98 | Y 3.07 | P 3.4 | H 3.33 | K 3.42 | A 3.02 | T 2.88 | F 3.02
K20: L 1.73 | I 2.26 | P 2.69 | M 2.25 | S 2.08 | A 1.95 | G 2.36 | F 2.15 | D 1.89 | R 1.9 | N 2.1 | H 2.17 | Y 2.46 | W 1.61 | E 2.1 | C 2.2 | V 2.3 | T 2.03 | Q 2.29
K19: S 1.74 | C 2.12 | D 1.96 | G 2.15 | N 2.19 | W 2.07 | A 2.68 | E 2.01 | T 2.77 | Q 2.57 | Y 1.95 | L 2.2 | H 1.55 | R 2.34 | M 2.12 | F 2.33 | I 2.58 | V 2.3 | P 2.69
T23: D 2.21 | L 2.71 | E 2.67 | I 2.76 | R 2.85 | G 2.41 | M 2.85 | V 2.36 | P 2.45 | Q 2.16 | K 2.54 | Y 2.78 | W 2.13 | N 2.28 | A 2.93 | C 2.7 | H 2.78 | S 2.09 | F 2.62
T16: P 2.22 | L 2.08 | Q 2.27 | H 2.24 | I 2.34 | Y 2.75 | V 2.07 | E 2.25 | R 2.51 | C 2.09 | K 2.78 | N 2.46 | G 2.33 | W 2.03 | S 2.39 | D 2.52 | F 2.14 | A 2.12 | M 1.98
Y13: S 2.08 | P 2.35 | V 2.21 | R 2.32 | K 2.25 | T 2.51 | I 2.09 | N 2.04 | L 2.08 | Q 2.67 | M 2.69 | W 2.44
F22: Q 2.66 | Y 2.84 | H 3.21 | D 2.94 | C 3.46 | E 3.23 | G 2.27 | M 2.48 | R 3.19 | L 2.87 | A 2.93 | I 2.76 | P 2.98 | S 3.06 | V 2.52 | K 2.79 | N 3.09 | W 2.3 | T 2.41
